Assay results: paper PMC10267580 (2023)

How the values were obtained:
[1] = biological target: Rab6B^Q72L, GTPase domain (residues 8-176), constitutively active mutant (mouse, UniProt P61294 8-176, Q72L); assay: ITC
[2] = biological target: Rab6B^Q72L L11E, GTPase domain (mouse, UniProt P61294 8-176, Q72L | L11E); assay: ITC
Chain of Rab6B^Q72L L11E, GTPase domain (P61294 8-176 L11E/Q72L): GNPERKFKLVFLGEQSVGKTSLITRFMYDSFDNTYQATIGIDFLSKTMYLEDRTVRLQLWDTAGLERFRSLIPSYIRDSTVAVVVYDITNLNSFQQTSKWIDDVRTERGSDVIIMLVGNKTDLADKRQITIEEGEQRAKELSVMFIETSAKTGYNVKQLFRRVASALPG

Chain of Rab6B^Q72L, GTPase domain (residues 8-176), constitutively active mutant (P61294 8-176 Q72L): as the sequence (P61294 8-176 L11E/Q72L) above, with E4L counted along it

Binder | Kd [1] | Kd [2]
ELKS1_RBD S868A (domain or fragment) RKHLEEVLEMKQEALLAAIAEKDANIALLELSSSKKKTQEEVAALKREKDRLVQQLKQQTQNRMKLMADNYEDD | 26 µM | –
ELKS1_RBD, Rab-binding domain of ELKS1 (residues 849-922) (domain or fragment) RKHLEEVLEMKQEALLAAISEKDANIALLELSSSKKKTQEEVAALKREKDRLVQQLKQQTQNRMKLMADNYEDD | – | > 50 µM
